Where no end group is shown, it is not given here.
B1: Phage-2993 (peptide)
peptide: LAHMCIPAWMCAGL
modifications: cysteine pairing not given here; also: peptide displayed as fusion to phage pIII

These binders were tested against T1, PSMA Fab (biotinylated (site not stated)) (assay: phage ELISA; biotinylated PSMA Fab on neutravidin plate, clonal phage supernatant, anti-M13 HRP detection;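 also: wells preincubated with PSMA antigen in blocking buffer or with blocking buffer only before clonal phage were added for a short incubation, then bound phage detected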).
T1 construct: also called Anti-PSMA Fab; 006 PSMA Fab

Row | Binder | Phage binding ELISA signal, Anti-PSMA Fab
1 | VVAHCVPSWMCTGF [Phage-2998] | 2.22
2 | AIAHCIPQWMCSGF [Phage-2995] | 2.22
3 | MSPRCVPMWMCDWL [Phage-2997] | 2.22
4 | YQLLCKPEWMCVGF [Phage-3002] | 2.21
5 | IARMCVPEWMCQEL [Phage-2999] | 2.22
6 | MLPWCVPHWMCDGF [Phage-3003] | 2.21
7 | B1 | 2.22
8 | MMPLCMPTWMCEGF [Phage-3001] | 2.22
9 | LQSMCRPAWMCTGF [Phage-2994] | 2.22
10 | EIPVCRPAWMCLGL [Phage-3000] | 2.22
11 | PEALCMPPWMCHGF [Phage-2996] | 2.22

What follows are binders tested against T1, PSMA Fab (assay: phage ELISA; PSMA Fab on plate pre-incubated with PSMA antigen as competitor, anti-M13 HRP detection;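 also: crude clonal phage supernatants added to Fab-coated wells still holding PSMA antigen in blocking buffer, with bound phage as read-out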).
Method: (§1) Clonal phage were harvested as crude supernatants and screened via standard ELISAs. […] Prior to the addition of clonal phage. wells were incubated with blocking buffer and PSMA antigen or blocking buffer alone. Without washing or aspirating, clonal phage supernatants were then added to the wells and incubated for a short time. Wells were then washed followed by detection of bound phage using a horse radish conjugated anti-M13 antibody.

Row | Binder | phage binding ELISA signal (Anti-PSMA Fab, PSMA antigen present)
12 | VVAHCVPSWMCTGF [Phage-2998] | 0.0901
13 | AIAHCIPQWMCSGF [Phage-2995] | 0.0878
14 | MSPRCVPMWMCDWL [Phage-2997] | 0.0821
15 | YQLLCKPEWMCVGF [Phage-3002] | 0.0672
16 | IARMCVPEWMCQEL [Phage-2999] | 0.107
17 | MLPWCVPHWMCDGF [Phage-3003] | 0.132
18 | B1 | 0.104
19 | MMPLCMPTWMCEGF [Phage-3001] | 0.075
20 | LQSMCRPAWMCTGF [Phage-2994] | 0.0839
21 | EIPVCRPAWMCLGL [Phage-3000] | 0.0698
22 | PEALCMPPWMCHGF [Phage-2996] | 0.0657

The binders below were run against T2, Anti-PSMA Fab (006 PSMA Fab) (biotinylated (site not stated)) (assay: clonal phage ELISA, biotinylated PSMA Fab on neutravidin plates, anti-M13 HRP detection).
T2 construct: Biotinylated PSMA Fab captured on neutravidin coated plates

Row | Binder | Phage binding ELISA signal, Anti-PSMA Fab
23 | WWPSCVPEWMCAGL [Phage-3009] | 2.21
24 | MYHMCRPSWMCEGF [Phage-3007] | 2.21
25 | SEVMCVPQWMCNGF [Phage-3008] | 2.21
26 | QWLRCEPEWMCIGF [Phage-3012] | 2.21
27 | WEPVCKPDWMCNGF [Phage-3011] | 2.21
28 | ALPMCEPFWMCTGF [Phage-3005] | 2.21
29 | VMVECRPAWMCNGF [Phage-3006] | 2.21
30 | GMPYCVPEWMCSWL [Phage-3010] | 2.21
31 | VEPMCRPAWMCLGF [Phage-3004] | 2.21

The binders below were run against T2, Anti-PSMA Fab (006 PSMA Fab) (assay: clonal phage ELISA on PSMA Fab pre-incubated with PSMA antigen as competitor, anti-M13 HRP detection).
Method: as §1

Row | Binder | Phage binding ELISA signal, Anti-PSMA Fab with PSMA antigen
32 | WWPSCVPEWMCAGL [Phage-3009] | 0.129
33 | MYHMCRPSWMCEGF [Phage-3007] | 0.142
34 | SEVMCVPQWMCNGF [Phage-3008] | 0.0981
35 | QWLRCEPEWMCIGF [Phage-3012] | 0.212
36 | WEPVCKPDWMCNGF [Phage-3011] | 0.08
37 | ALPMCEPFWMCTGF [Phage-3005] | 0.0628
38 | VMVECRPAWMCNGF [Phage-3006] | 0.0636
39 | GMPYCVPEWMCSWL [Phage-3010] | 0.0827
40 | VEPMCRPAWMCLGF [Phage-3004] | 0.0882

Source: patent US20260242478A1 (published 2026)
